The text below walks through data of the supplement of paper PMC10126150.

The data set has as its system ATP. The data set is described as follows: switch fluorescence ratio, 500 uM ATP over buffer (Cy3 cluster intensity, sum of 5 cycles each) (fold (ratio)); higher = stronger signal-on switching upon ATP binding; sequences stand for … in TCGTCGGCAGCGTCAGATGTGTATAAGAGACAGTTTTTTTTTTTTTTTTTTTTTTTTT…TC. The conditions noted are these: aptamer strand: ATP DNA aptamer (quencher-CACCTGGGGGAGTATTGCGGAGGAAGG + anchor), 100 nM annealed; ATP concentration: 500 uM. The method, boiled down: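 Clusters with intensities outside 100-1000 RFU were excluded. The remaining Cy3-labelled switching-strand clusters on a modified Illumina MiSeq flow-cell had been annealed to 100 nM quencher-labelled ATP aptamer and imaged in selection buffer, then after 15 min with 500 uM ATP at 22 °C, for five cycles separated by NaOH stripping and re-annealing. The fluorescence ratio, averaged per switch-domain sequence, is each cluster's summed target-cycle Cy3 intensity over its summed buffer-cycle Cy3 intensity.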

± gives the standard deviation of the averaged measurements.
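Also: ATP exposure 15 min at 22 °C before imaging.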

Consider AGGGTGATTA, for which the switch fluorescence ratio was found to be 1.01 ± 0.018.

In the case of CCGGTATGGT, the switch fluorescence ratio worked out at 1.012 ± 0.0077.

On to GATGTTTTGG, for which the switch fluorescence ratio was 0.986 ± 0.033.

Take TGGTTGAACC: the switch fluorescence ratio was 1.03 ± 0.024.

Take TGGCCGGAAT: the switch fluorescence ratio was determined as 1.04 ± 0.03.

On to TGTAGGGGTG, for which the switch fluorescence ratio came to 0.987 ± 0.016.

As for GGGGTGTTGT, the switch fluorescence ratio stood at 1 ± 0.04.

For the sequence TAGGTTGGGT, the switch fluorescence ratio is 0.992 ± 0.0089.

With ATTGTATTTT, the switch fluorescence ratio came to 0.979 ± 0.022.

Turning to GCGTAAAAGG, the switch fluorescence ratio was 0.974 ± 0.034.

In the case of TTAAGGCGTT, the switch fluorescence ratio came to 0.9791 ± 0.0071.

Take CGTTTTCCAG: the switch fluorescence ratio is 0.985 ± 0.03.

In the case of TTTGACTGAG, the switch fluorescence ratio turned out to be 0.997 ± 0.023.

As to GCTGGTTAAA, the switch fluorescence ratio was 0.97834 ± 0.00053.

In the case of TTGTTGAGGG, the switch fluorescence ratio was 1.014 ± 0.0042.

Take CGGGAAATTG: the switch fluorescence ratio was 0.9893 ± 0.0035.

On to GACGGTCATG, for which the switch fluorescence ratio was determined as 0.995 ± 0.018.

For the sequence ATTTTATTCT, the switch fluorescence ratio is 1.003 ± 0.0076.

In the case of TTGATGGTGC, the switch fluorescence ratio came out at 1.05 ± 0.038.

Consider GCACGGGGCA, for which the switch fluorescence ratio was 1.01 ± 0.023.

Consider ACTCGGTGGG, for which the switch fluorescence ratio came out at 1.01 ± 0.035.

On to AAGGGGCCCC, for which the switch fluorescence ratio came to 1.31 ± 0.49.

As to GGGATTGAGC, the switch fluorescence ratio was 1.03 ± 0.041.

As for TTTTTTAAGG, the switch fluorescence ratio was determined as 1 ± 0.034.

On to TGGTTGATGA, for which the switch fluorescence ratio amounted to 0.98 ± 0.064.

With GGGACGGGTG, the switch fluorescence ratio came out at 1.02 ± 0.025.

As for CATGTTAGGG, the switch fluorescence ratio is 1.01 ± 0.033.

Consider CGACGTGGCG, for which the switch fluorescence ratio was 0.981 ± 0.064.

For CGGGGCCTAG, the switch fluorescence ratio is 1.01 ± 0.058.

On to AGACCTGGCC, for which the switch fluorescence ratio turned out to be 1.14 ± 0.011.

Turning to AAATGGTGTG, the switch fluorescence ratio was 1.02 ± 0.019.

With CGGGTACCGC, the switch fluorescence ratio amounted to 1.05 ± 0.053.

Regarding AATGGATGTG, the switch fluorescence ratio turned out to be 0.991 ± 0.013.

Consider CCGGCTTGCA, for which the switch fluorescence ratio came to 1.13 ± 0.017.

Consider CGACGTTGGT, for which the switch fluorescence ratio is 1.08 ± 0.043.

GGGTGGACCT: the switch fluorescence ratio is 1.13 ± 0.048.

As for TGGGGAGATA, the switch fluorescence ratio was 1.01 ± 0.018.

As to CCCTTGATGC, the switch fluorescence ratio was 1.151 ± 0.008.

With ATGGGGGGTC, the switch fluorescence ratio worked out at 0.985 ± 0.041.

With GTGTTAGGCT, the switch fluorescence ratio came out at 0.978 ± 0.012.

As to GAGAATTTGT, the switch fluorescence ratio stood at 0.978 ± 0.033.

Turning to TTTTGATTTC, the switch fluorescence ratio is 1.02 ± 0.039.

For the sequence GGGCGGGTCT, the switch fluorescence ratio was 1.01 ± 0.046.

In the case of ATTTGCTCGG, the switch fluorescence ratio came to 1.036 ± 0.0097.

Consider ACCTTGGGGA, for which the switch fluorescence ratio was found to be 1.25 ± 0.4.

Turning to TATTACTTTG, the switch fluorescence ratio worked out at 1.01 ± 0.024.

With AGGCGGGGGC, the switch fluorescence ratio came to 1.03 ± 0.068.

On to GGAGTTTAAG, for which the switch fluorescence ratio amounted to 0.996 ± 0.039.

For CAGGGTACGC, the switch fluorescence ratio was 1.04 ± 0.016.

In the case of TGCGGTCGCG, the switch fluorescence ratio was found to be 0.959 ± 0.012.

Take GCCGTGGAGA: the switch fluorescence ratio stood at 1.03 ± 0.021.

With CCTGTAGTCT, the switch fluorescence ratio was determined as 1.04 ± 0.039.

As to TGTTGATTGT, the switch fluorescence ratio worked out at 0.983 ± 0.013.

TCAGTAAGTT: the switch fluorescence ratio worked out at 0.995 ± 0.021.

On to CCTTTTTCAC, for which the switch fluorescence ratio was 1.03 ± 0.032.

With GACGGCTGTA, the switch fluorescence ratio was 0.991 ± 0.015.

For the sequence CATAGCTGTG, the switch fluorescence ratio was 1.01 ± 0.026.

As for GTTGGACAGC, the switch fluorescence ratio came out at 1.01 ± 0.023.

AATCGTTGGG: the switch fluorescence ratio was 0.955 ± 0.038.

In the case of GATATATTAT, the switch fluorescence ratio was 1.017 ± 0.0038.

Turning to TTGTTAAATA, the switch fluorescence ratio is 0.98 ± 0.011.

With AATTTGGGGT, the switch fluorescence ratio came to 0.995 ± 0.035.

Regarding GGGATTTTTA, the switch fluorescence ratio was determined as 0.987 ± 0.018.

Turning to TGGGGCCTTA, the switch fluorescence ratio was found to be 0.952 ± 0.018.

CGATATGGGC: the switch fluorescence ratio was found to be 1.02 ± 0.014.

Regarding ATTGCGGGCC, the switch fluorescence ratio worked out at 1.02 ± 0.047.

Regarding GGGGCGGTCC, the switch fluorescence ratio came out at 1.04 ± 0.043.

In the case of GTTTGAACGG, the switch fluorescence ratio turned out to be 0.993 ± 0.018.

Turning to TTTAATGAAC, the switch fluorescence ratio was determined as 1 ± 0.074.

Take AGTACGTCTC: the switch fluorescence ratio worked out at 1.04 ± 0.0099.

For the sequence TTAGCGGCAG, the switch fluorescence ratio amounted to 0.9883 ± 0.0034.

For the sequence TTTTAGGTGC, the switch fluorescence ratio came to 1.09 ± 0.099.

For the sequence GGGTCATGTT, the switch fluorescence ratio amounted to 1 ± 0.015.

Consider ACGTTTGAGT, for which the switch fluorescence ratio came to 0.99 ± 0.016.

With ATGGGTCCAG, the switch fluorescence ratio turned out to be 1.01 ± 0.019.

On to ATAAGAGGGT, for which the switch fluorescence ratio was found to be 0.976 ± 0.049.

On to ATTTTGCTCG, for which the switch fluorescence ratio was found to be 0.999 ± 0.021.

For AATTATTTTA, the switch fluorescence ratio stood at 1.022 ± 0.0018.

As to TTGGTAGTTT, the switch fluorescence ratio was found to be 1.022 ± 0.0061.

AAGTAGGCTC: the switch fluorescence ratio stood at 0.991 ± 0.007.

Take ACTTGCTTTA: the switch fluorescence ratio turned out to be 1.04 ± 0.017.

As to CATTGAATAC, the switch fluorescence ratio turned out to be 1.36 ± 0.061.

With GGGAGGGCA, the switch fluorescence ratio is 1 ± 0.011.

Take TCCGTTGGGG: the switch fluorescence ratio came to 1.05 ± 0.15.

Take AAGTGCAAAC: the switch fluorescence ratio amounted to 1.53 ± 0.73.

Regarding ACTCAATGCA, the switch fluorescence ratio was determined as 1.06 ± 0.045.

For AGAGACATGC, the switch fluorescence ratio is 0.923 ± 0.085.

As for GTGCGAACTT, the switch fluorescence ratio worked out at 1.015 ± 0.0028.

As for GGTGAGGGGG, the switch fluorescence ratio was 1 ± 0.068.

With TTAGGGTCGG, the switch fluorescence ratio was 1 ± 0.036.

For the sequence GGTATATTAG, the switch fluorescence ratio turned out to be 0.99 ± 0.028.

With TTTGGCCTAC, the switch fluorescence ratio stood at 1.01 ± 0.02.

As for AATGATGCTT, the switch fluorescence ratio is 1 ± 0.051.

Regarding TGGGAAGGTT, the switch fluorescence ratio worked out at 1.02 ± 0.041.

Regarding TGGTTGGGCT, the switch fluorescence ratio was 1.01 ± 0.026.

With TGTTCAGGTG, the switch fluorescence ratio was 3.38 ± 0.15.

With TTACGTGCTG, the switch fluorescence ratio came out at 0.9806 ± 0.0083.

Take TGGTTAAATT: the switch fluorescence ratio was 0.997 ± 0.033.

As for AGGCGGCGG, the switch fluorescence ratio was 0.975 ± 0.022.

Turning to CACGCATCAG, the switch fluorescence ratio came to 1.137 ± 0.011.

As to ATGGGCAGTC, the switch fluorescence ratio stood at 1.21 ± 0.41.

On to AACACAGGTA, for which the switch fluorescence ratio worked out at 1.06 ± 0.013.

TTGGCCTCGA: the switch fluorescence ratio came to 1.01 ± 0.039.

With GGGGGGTGCG, the switch fluorescence ratio came out at 0.999 ± 0.019.

As to GGTTTTGGTT, the switch fluorescence ratio came out at 0.986 ± 0.025.

For CGGCAAGTAT, the switch fluorescence ratio amounted to 1.063 ± 0.0089.

Take GCAGGTGGAG: the switch fluorescence ratio turned out to be 1.02 ± 0.06.

Turning to GACACTTGGA, the switch fluorescence ratio amounted to 1.03 ± 0.014.

Consider TTGGCGTAAG, for which the switch fluorescence ratio was 1.03 ± 0.045.

With GTCTGTATGT, the switch fluorescence ratio came out at 1.015 ± 0.0028.

For the sequence TAGGTGCTTT, the switch fluorescence ratio is 1.079 ± 0.0059.

In the case of GCTGGGCGGC, the switch fluorescence ratio amounted to 0.95 ± 0.014.

With ATAATGGGGA, the switch fluorescence ratio is 1 ± 0.018.

GCAGAGGGGT: the switch fluorescence ratio was determined as 1.04 ± 0.066.

For TGGTTTACCA, the switch fluorescence ratio amounted to 0.9936 ± 0.0041.

As for AAAGGTTGTT, the switch fluorescence ratio was 1.013 ± 0.0037.

Turning to GATGTATTTT, the switch fluorescence ratio was found to be 0.9823 ± 0.004.

Take ATTAGTAAGA: the switch fluorescence ratio was 0.975 ± 0.011.

For the sequence GAAAATAGGT, the switch fluorescence ratio was 0.99 ± 0.024.

On to CGTGCAGGGG, for which the switch fluorescence ratio worked out at 1.057 ± 0.0013.
